T1: PavMYB.C2 (Prunus avium (sweet cherry), UniProt A0A6P5T6R9 1-74)
T1 sequence: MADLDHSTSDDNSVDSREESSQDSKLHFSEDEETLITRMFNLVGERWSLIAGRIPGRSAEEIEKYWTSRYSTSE


Target: T1, PavMYB.C2
Assay: EMSA; EMSA/Gel-Shift Kit (Beyotime) with LightShift chemiluminescent EMSA kit (Thermo Fisher), standard protocol; buffer, salt, pH and temperature not stated
Settings: protein: recombinant; tags: GST (pGEX-4T-1); label: 3' biotin (Methods); blunt

| Binder | binding result |
| --- | --- |
| UFGT promoter MBS2 probe (dsDNA) DNA 1: TGAGAGAAAGAAATAAAAATCAGAAACAAAGGTAGCGTTTTTCTTTCTTT DNA 2: AAAGAAAGAAAAACGCTACCTTTGTTTCTGATTTTTATTTCTTTCTCTCA | no binding |
| UFGT promoter MBS1 probe (dsDNA) DNA 1: GATCGATATTTAGAGAGAGAAACAACCACCCGCGTGATGTGTGAGAGAAA DNA 2: TTTCTCTCACACATCACGCGGGTGGTTGTTTCTCTCTCTAAATATCGATC | no binding |
| UFGT promoter MBS3 probe (dsDNA) DNA 1: TTCACTCCTCGACTCAGCAAGTGGTTATTTAGTGGTAGAGTTTGTTTTGA DNA 2: TCAAAACAAACTCTACCACTAAATAACCACTTGCTGAGTCGAGGAGTGAA | binds |

Reference: PMC12185008, “The PavMYB.C2-UFGT module contributes to fruit coloration via modulating anthocyanin biosynthesis in sweet cherry”
